B1: GST-xAurA(127–407) (domain or fragment)
chain: KEEGKKKQWCLEDFEIGRPLGKGKFGNVYLARERESKFILALKVLFKSQLEKAGVEHQLRREVEIQSHLRHPNILRLYGYFHDASRVYLILDYAPGGELFRELQKCTRFDDQRSAMYIKQLAEALLYCHSKKVIHRDIKPENLLLGSNGELKIADFGWSVHAPSSRRTTLCGTLDYLPPEMIEGRMHDETVDLWSLGVLCYEFLVGKPPFETDTHQETYRRISKVEFQYPPYVSEEARDLVSKLLKHNPNHRLPLKGVLEHPWIIKNSQLKKKDEPLPGAQ
B2: GST-xBuGZ(8–58) (domain or fragment)
chain: not shown
B3: GST-xAurA (full length, amino acids 1–407) (enzyme)
chain: MERAVKENHKPSNVKIFHPMTEGAKRIPVNQPQSTQFRPPGTAVSAQRILGPSNVPQRVLAQAQKPILSSQKPTTQIPLRPATQGHQSSKPQGPNENRNPQQTSHSSTPNVEKKGSTDQGKTSAVPKEEGKKKQWCLEDFEIGRPLGKGKFGNVYLARERESKFILALKVLFKSQLEKAGVEHQLRREVEIQSHLRHPNILRLYGYFHDASRVYLILDYAPGGELFRELQKCTRFDDQRSAMYIKQLAEALLYCHSKKVIHRDIKPENLLLGSNGELKIADFGWSVHAPSSRRTTLCGTLDYLPPEMIEGRMHDETVDLWSLGVLCYEFLVGKPPFETDTHQETYRRISKVEFQYPPYVSEEARDLVSKLLKHNPNHRLPLKGVLEHPWIIKNSQLKKKDEPLPGAQ
B4: xAurA (cleaved from mCherry-xAurA) (enzyme)
chain: B3 chain

What was measured:
YFP-xBuGZ (full length) [1] = target: T1, YFP-xBuGZ (full length) (Xenopus laevis, UniProt Q7ZXV8 1-452); test: pull-down
T1 sequence (Q7ZXV8 whole entry): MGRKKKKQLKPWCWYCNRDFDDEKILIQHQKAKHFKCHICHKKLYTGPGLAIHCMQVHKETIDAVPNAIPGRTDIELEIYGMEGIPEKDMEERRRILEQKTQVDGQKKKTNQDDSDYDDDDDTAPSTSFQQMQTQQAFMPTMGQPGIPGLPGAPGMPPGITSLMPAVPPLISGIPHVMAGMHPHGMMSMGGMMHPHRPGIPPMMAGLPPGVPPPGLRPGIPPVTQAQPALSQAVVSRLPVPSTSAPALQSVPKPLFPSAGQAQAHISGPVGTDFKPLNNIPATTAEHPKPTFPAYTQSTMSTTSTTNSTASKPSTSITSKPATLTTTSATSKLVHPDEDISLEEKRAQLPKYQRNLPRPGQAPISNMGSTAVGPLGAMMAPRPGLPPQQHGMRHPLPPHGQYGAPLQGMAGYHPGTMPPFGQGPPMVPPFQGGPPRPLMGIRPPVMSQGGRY

[2] = target: B4; test: pull-down
YFP-xBuGZΔN7 = YFP-xBuGZΔN7 (Xenopus laevis, UniProt Q7ZXV8 8-452); test: pull-down
Sequence of YFP-xBuGZΔN7 (Q7ZXV8 8-452, stated change not applied): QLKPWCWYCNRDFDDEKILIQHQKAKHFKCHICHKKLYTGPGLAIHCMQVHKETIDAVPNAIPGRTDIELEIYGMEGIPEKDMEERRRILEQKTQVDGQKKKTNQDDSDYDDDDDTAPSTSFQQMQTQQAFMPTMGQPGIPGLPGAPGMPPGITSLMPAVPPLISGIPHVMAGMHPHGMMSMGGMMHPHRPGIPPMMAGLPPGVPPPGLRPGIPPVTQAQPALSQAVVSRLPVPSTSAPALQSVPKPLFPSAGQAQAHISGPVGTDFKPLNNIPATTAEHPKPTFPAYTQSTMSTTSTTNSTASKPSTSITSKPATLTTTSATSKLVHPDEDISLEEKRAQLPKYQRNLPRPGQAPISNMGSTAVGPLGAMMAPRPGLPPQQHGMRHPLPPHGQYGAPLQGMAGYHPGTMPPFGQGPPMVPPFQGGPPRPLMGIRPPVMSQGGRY

YFP-xBuGZ (full length) [3] = target: T1, YFP-xBuGZ (full length); test: co-sedimentation

B1: binds (YFP-xBuGZ (full length) [1]).

B2: binds [2].

B3: binds (YFP-xBuGZ (full length) [1]).

B4: binds (YFP-xBuGZΔN7); binds (YFP-xBuGZ (full length) [3]).
